Measurements published in the supplement of paper PMC10567573.

B1: VPS39 (parent)
chain: ITEEKVCMVCKKKIGNSAFARYPN
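Note: lentivirally expressed fusions sorted by FACS into six bins by GFP to DsRed ratio, PSI derived from sequencing read proportions per bin multiplied by bin number.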

Variants of: B1
Assay: protein stability index of a GFP-peptide fusion (GPS, HEK-293T) (PSI 1-6); higher = more stable
Conditions: c terminus: a fixed tail appended
Work on ITEEKVCMVCKKKIGNSAHARYPN yielded a protein stability index of 2.89.
In the case of ITEEKVCMVCKKKIGNSALARYPN, the protein stability index is reported as 2.28.
Work on ITEEKVCMVCKKKIGNSAMARYPN yielded a protein stability index of 2.39.
Work on ITEEKVCMVCKKKIGNSAGARYPN yielded a protein stability index of 3.29.
Work on ITEEKVCMVCKKKIGNSAAARYPN yielded a protein stability index of 3.58.
With ITEEKVCMVCKKKIGNSAEARYPN the protein stability index was 3.62.
ITEEKVCMVCKKKIGNSAVARYPN showed a protein stability index of 3.27.
For ITEEKVCMVCKKKIGNSANARYPN, the protein stability index was 2.69.
Variant ITEEKVCMVCKKKIGNSAIARYPN has a protein stability index of 2.82.
Variant ITEEKVCMVCKKKIGNSATARYPN has a protein stability index of 3.58.
For ITEEKVCMVCKKKIGNSADARYPN, the protein stability index was 4.58.
Work on ITEEKVCMVCKKKIGNSARARYPN yielded a protein stability index of 2.91.
In the case of ITEEKVCMVCKKKIGNSAQARYPN, the protein stability index is reported as 3.58.
ITEEKVCMVCKKKIGNSAPARYPN gave a protein stability index of 3.14.
In the case of ITEEKVCMVCKKKIGNSAYARYPN, the protein stability index is reported as 3.06.
ITEEKVCMVCKKKIGNSAKARYPN showed a protein stability index of 3.55.
For ITEEKVCMVCKKKIGNSAWARYPN, the protein stability index was 2.34.
In the case of ITEEKVCMVCKKKIGNSASARYPN, the protein stability index is reported as 2.56.
With ITEEKVCMVCKKKIGNSAFRRYPN the protein stability index was 2.62.
In the case of ITEEKVCMVCKKKIGNSAFNRYPN, the protein stability index is reported as 2.32.
With ITEEKVCMVCKKKIGNSAFDRYPN the protein stability index was 2.62.
ITEEKVCMVCKKKIGNSAFIRYPN gave a protein stability index of 3.49.
For ITEEKVCMVCKKKIGNSAFKRYPN, the protein stability index was 2.26.
Variant ITEEKVCMVCKKKIGNSAFPRYPN has a protein stability index of 2.62.
For ITEEKVCMVCKKKIGNSAFQRYPN, the protein stability index was 2.74.
Work on ITEEKVCMVCKKKIGNSAFGRYPN yielded a protein stability index of 2.05.
ITEEKVCMVCKKKIGNSAFHRYPN gave a protein stability index of 2.38.
ITEEKVCMVCKKKIGNSAFERYPN gave a protein stability index of 2.11.
In the case of ITEEKVCMVCKKKIGNSAFYRYPN, the protein stability index is reported as 2.31.
ITEEKVCMVCKKKIGNSAFFRYPN showed a protein stability index of 2.34.
ITEEKVCMVCKKKIGNSAFSRYPN showed a protein stability index of 3.16.
Variant ITEEKVCMVCKKKIGNSAFMRYPN has a protein stability index of 2.43.
ITEEKVCMVCKKKIGNSAFVRYPN showed a protein stability index of 2.38.
Work on ITEEKVCMVCKKKIGNSAFLRYPN yielded a protein stability index of 2.09.
ITEEKVCMVCKKKIGNSAFTRYPN gave a protein stability index of 2.73.
With ITEEKVCMVCKKKIGNSAFWRYPN the protein stability index was 2.16.
In the case of ITEEKVCMVCKKKIGNSAFCRYPN, the protein stability index is reported as 2.56.
In the case of ITEEKVCMVCKKKIGNSAFARYNN, the protein stability index is reported as 2.32.
ITEEKVCMVCKKKIGNSAFARYAN gave a protein stability index of 2.38.
ITEEKVCMVCKKKIGNSAFARYMN gave a protein stability index of 1.78.
With ITEEKVCMVCKKKIGNSAFARYHN the protein stability index was 2.04.
For ITEEKVCMVCKKKIGNSAFARYTN, the protein stability index was 2.13.
ITEEKVCMVCKKKIGNSAFARYKN showed a protein stability index of 2.13.
For ITEEKVCMVCKKKIGNSAFARYLN, the protein stability index was 2.57.
Variant ITEEKVCMVCKKKIGNSAFARYIN has a protein stability index of 2.63.
Variant ITEEKVCMVCKKKIGNSAFARYQN has a protein stability index of 2.26.
ITEEKVCMVCKKKIGNSAFARYFN showed a protein stability index of 1.76.
ITEEKVCMVCKKKIGNSAFARYYN gave a protein stability index of 1.74.
ITEEKVCMVCKKKIGNSAFARYVN gave a protein stability index of 4.25.
In the case of ITEEKVCMVCKKKIGNSAFARYCN, the protein stability index is reported as 2.8.
For ITEEKVCMVCKKKIGNSAFARYDN, the protein stability index was 3.19.
ITEEKVCMVCKKKIGNSAFARYSN gave a protein stability index of 2.56.
In the case of ITEEKVCMVCKKKIGNSAFARYGN, the protein stability index is reported as 2.7.
ITEEKVCMVCKKKIGNSAFARYRN showed a protein stability index of 2.49.
In the case of ITEEKVCMVCKKKIGNSAFARYEN, the protein stability index is reported as 3.38.
ITEEKVCMVCKKKIGNSAFARYWN showed a protein stability index of 1.75.
In the case of ITEEKVCMVCKKKIGNSAFAGYPN, the protein stability index is reported as 2.83.
Variant ITEEKVCMVCKKKIGNSAFADYPN has a protein stability index of 4.02.
Work on ITEEKVCMVCKKKIGNSAFAAYPN yielded a protein stability index of 2.86.
Variant ITEEKVCMVCKKKIGNSAFAMYPN has a protein stability index of 2.71.
ITEEKVCMVCKKKIGNSAFAWYPN showed a protein stability index of 1.94.
ITEEKVCMVCKKKIGNSAFAVYPN gave a protein stability index of 2.59.
For ITEEKVCMVCKKKIGNSAFAQYPN, the protein stability index was 2.75.
ITEEKVCMVCKKKIGNSAFAKYPN showed a protein stability index of 2.77.
ITEEKVCMVCKKKIGNSAFATYPN gave a protein stability index of 2.55.
ITEEKVCMVCKKKIGNSAFANYPN gave a protein stability index of 2.71.
With ITEEKVCMVCKKKIGNSAFAIYPN the protein stability index was 2.93.
For ITEEKVCMVCKKKIGNSAFAHYPN, the protein stability index was 2.99.
With ITEEKVCMVCKKKIGNSAFACYPN the protein stability index was 2.5.
In the case of ITEEKVCMVCKKKIGNSAFAEYPN, the protein stability index is reported as 3.15.
Work on ITEEKVCMVCKKKIGNSAFAPYPN yielded a protein stability index of 3.02.
Work on ITEEKVCMVCKKKIGNSAFASYPN yielded a protein stability index of 2.58.
For ITEEKVCMVCKKKIGNSAFAYYPN, the protein stability index was 3.13.
In the case of ITEEKVCMVCKKKIGNSAFAFYPN, the protein stability index is reported as 2.39.
ITEEKVCMVCKKKIGNSAFALYPN showed a protein stability index of 2.45.
In the case of ITEEKVCMVCKKKIGNSAFARRPN, the protein stability index is reported as 2.35.
ITEEKVCMVCKKKIGNSAFARCPN gave a protein stability index of 2.98.
Work on ITEEKVCMVCKKKIGNSAFARDPN yielded a protein stability index of 3.12.
ITEEKVCMVCKKKIGNSAFARKPN gave a protein stability index of 2.82.
With ITEEKVCMVCKKKIGNSAFARHPN the protein stability index was 2.77.
Variant ITEEKVCMVCKKKIGNSAFARNPN has a protein stability index of 2.72.
ITEEKVCMVCKKKIGNSAFAREPN gave a protein stability index of 3.55.
ITEEKVCMVCKKKIGNSAFARWPN gave a protein stability index of 1.63.
ITEEKVCMVCKKKIGNSAFARPPN gave a protein stability index of 2.65.
For ITEEKVCMVCKKKIGNSAFARIPN, the protein stability index was 2.39.
Work on ITEEKVCMVCKKKIGNSAFARMPN yielded a protein stability index of 2.9.
Variant ITEEKVCMVCKKKIGNSAFARLPN has a protein stability index of 2.22.
For ITEEKVCMVCKKKIGNSAFARAPN, the protein stability index was 2.57.
Variant ITEEKVCMVCKKKIGNSAFARVPN has a protein stability index of 2.38.
For ITEEKVCMVCKKKIGNSAFARQPN, the protein stability index was 2.77.
With ITEEKVCMVCKKKIGNSAFARTPN the protein stability index was 2.95.
Variant ITEEKVCMVCKKKIGNSAFARGPN has a protein stability index of 2.64.
With ITEEKVCMVCKKKIGNSAFARSPN the protein stability index was 2.81.
Work on ITEEKVCMVCKKKIGNSAFARFPN yielded a protein stability index of 2.31.
